Measurements reported in patent publication US20110144312A1 (Kyowa Kirin, published 2011).

T1: cynomolgus macaque IL-10Rα on PBMC (cynomolgus macaque, UniProt Q13651 22-578 (human entry))
T1 construct: Full-length entry cloned from cynomolgus T cells; endogenous on primary PBMC in the assays; also called IL-10Rα on the surface of cynomolgus lymphocytes and monocytes
T1 chain: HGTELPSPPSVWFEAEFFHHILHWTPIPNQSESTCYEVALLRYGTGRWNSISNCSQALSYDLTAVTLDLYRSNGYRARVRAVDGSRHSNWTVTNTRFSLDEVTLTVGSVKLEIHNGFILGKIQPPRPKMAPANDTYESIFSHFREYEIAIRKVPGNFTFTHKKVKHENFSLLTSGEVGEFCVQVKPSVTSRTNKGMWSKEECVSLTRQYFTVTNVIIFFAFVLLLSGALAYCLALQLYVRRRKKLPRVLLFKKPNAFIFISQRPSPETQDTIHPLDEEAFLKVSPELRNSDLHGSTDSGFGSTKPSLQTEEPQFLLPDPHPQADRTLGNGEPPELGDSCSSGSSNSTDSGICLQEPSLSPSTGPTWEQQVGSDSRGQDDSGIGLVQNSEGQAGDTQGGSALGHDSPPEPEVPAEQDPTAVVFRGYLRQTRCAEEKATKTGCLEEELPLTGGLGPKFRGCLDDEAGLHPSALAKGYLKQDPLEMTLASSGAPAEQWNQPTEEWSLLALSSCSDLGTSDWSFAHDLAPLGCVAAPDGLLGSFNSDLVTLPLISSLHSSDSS

T2: mouse IL-10Rα on splenocytes (mouse, UniProt Q61727 17-575)
T2 construct: whole, on cells
T2 sequence (looked up): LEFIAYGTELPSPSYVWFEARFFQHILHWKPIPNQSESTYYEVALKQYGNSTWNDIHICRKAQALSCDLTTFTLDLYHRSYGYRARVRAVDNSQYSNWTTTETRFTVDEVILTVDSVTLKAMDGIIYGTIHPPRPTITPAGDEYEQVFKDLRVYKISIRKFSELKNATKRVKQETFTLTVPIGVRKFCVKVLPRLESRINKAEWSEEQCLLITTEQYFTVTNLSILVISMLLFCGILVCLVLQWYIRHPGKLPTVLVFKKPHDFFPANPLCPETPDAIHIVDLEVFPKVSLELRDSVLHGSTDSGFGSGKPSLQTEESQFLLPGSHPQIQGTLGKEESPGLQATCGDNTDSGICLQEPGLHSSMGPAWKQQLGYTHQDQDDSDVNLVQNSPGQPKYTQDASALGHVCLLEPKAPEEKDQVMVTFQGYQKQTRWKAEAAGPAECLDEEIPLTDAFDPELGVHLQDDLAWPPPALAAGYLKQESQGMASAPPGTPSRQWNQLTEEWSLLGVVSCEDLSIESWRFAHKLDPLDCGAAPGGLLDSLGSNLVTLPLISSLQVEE

T3: Biotin-SGSTYSIFSHFREYEIAIRKV-NH2 (human, N-terminal biotin, C-terminal amide (-NH2))
T3 peptide: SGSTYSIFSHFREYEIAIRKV

T4: Ac-GNFTFTHKKV-NH2 (human)
T4 peptide: Ac-GNFTFTHKKV-NH2

T5: Ac-YHSNGYRARVRA-NH2 (human)
T5 peptide: Ac-YHSNGYRARVRA-NH2

T6: Biotin-SGSTLDLYHSNGYRARVRAVDG-NH2 (human, N-terminal biotin, C-terminal amide (-NH2))
T6 peptide: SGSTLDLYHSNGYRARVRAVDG

T7: Ac-SIFSHFREYE-NH2 (human)
T7 peptide: Ac-SIFSHFREYE-NH2

T8: Ac-SVASRSNKGM-NH2 (human)
T8 peptide: Ac-SVASRSNKGM-NH2

T9: Ac-TVTNTRFSVD-NH2 (human)
T9 peptide: Ac-TVTNTRFSVD-NH2

T10: human IL-10Rα on cells (human, UniProt Q13651 22-578)
T10 construct: Full-length entry with signal peptide; endogenous on PBMC and RPMI-8226 cells, transfected in EL-4 and CHO-K1 cells; also called IL-10R on RPMI-8226 cells; IL-10Rα on human PBMC, lymphocytes and monocytes
T10 sequence: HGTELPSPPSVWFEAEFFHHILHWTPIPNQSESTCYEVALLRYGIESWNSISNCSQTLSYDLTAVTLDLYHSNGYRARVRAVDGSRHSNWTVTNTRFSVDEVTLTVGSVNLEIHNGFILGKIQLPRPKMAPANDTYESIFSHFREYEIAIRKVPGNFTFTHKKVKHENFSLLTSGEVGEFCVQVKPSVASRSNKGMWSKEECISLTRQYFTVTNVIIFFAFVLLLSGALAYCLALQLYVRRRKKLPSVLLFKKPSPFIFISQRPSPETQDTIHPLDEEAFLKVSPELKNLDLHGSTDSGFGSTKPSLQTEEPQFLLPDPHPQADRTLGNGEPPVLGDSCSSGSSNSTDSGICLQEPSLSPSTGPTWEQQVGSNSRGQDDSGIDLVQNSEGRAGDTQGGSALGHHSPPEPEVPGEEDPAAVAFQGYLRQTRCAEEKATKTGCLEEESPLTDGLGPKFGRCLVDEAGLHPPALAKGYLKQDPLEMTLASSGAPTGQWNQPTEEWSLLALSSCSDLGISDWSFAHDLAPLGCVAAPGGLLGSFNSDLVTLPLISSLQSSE


How the values were obtained:
[1] = target: T1, cynomolgus macaque IL-10Rα on PBMC; assay: flow cytometry on cynomolgus PBMC
[2] = target: T11, cynomolgus macaque IL-10Rα extracellular domain fused to the Fc portion of human IgG1 (cynomolgus macaque); assay: ELISA, coated cynomolgus IL-10Rα:hFc
T11 construct: The entry includes the signal peptide; also called cynomolgus IL-10Rα:hFc; cyIL-10Rα
From the text: Titration of anti-IL-10Rα antibodies binding to coated chimp or cynomolgus IL-10Rα:hFc. Binding was detected with anti-human kappa-HRP, anti-mouse IgG-HRP, or anti-rat IgG-HRP. Different anti-rat-IgG HRP and anti-mouse IgG antibodies were used to generate the data in panels A and B. The nature of these secondary antibodies can affect the results and lead to different maximum binding (BMAX). The BMAX from these studies are described in Table 5.
IL-10Rα Specific Antibody Detection ELISA: Antibody titers, specificity, and production by hybridomas were determined by ELISA. In brief, 96 well flat bottom Maxisorb plates were coated with 50 μl of hIL-10Rα (R&D Systems, Minneapolis, Minn.) at 1 μg/ml in carbonate buffer (pH 9.4) overnight at 4° C. or at 37° C. for 1 hour. After washing three times with PBS/0.05% Tween 20, plates were blocked with Superblock blocking buffer in TBS (Pierce) at room temperature for 30 minutes. The serum, supernatant, or purified antibody was diluted in blocking buffer, added to the wells, and the plates were incubated for 1 hour at room temperature. The plates were washed 3 times with PBS/0.05% Tween 20 and peroxidase-conjugated goat anti-human IgG (Fcγ specific), anti-rat IgG, or anti-mouse IgG detection antibodies (Jackson Immunoresearch) were added at a dilution of 1:5000. Multiple lots of anti-rat and anti-mouse IgG antibodies were used in different assays. […] Following a 1 hour incubation at room temperature, the plates were washed and the TMB (Sigma) substrate was added and incubated at room temperature for 5 to 10 minutes. The reaction was stopped with H₂SO₄ (LabChem) and the optical density was measured at 450 nm by a microplate reader. A second ELISA protocol using soluble human, chimp and cynomolgus IL-10Rα:hFc recombinant proteins as the coating antigens was also employed. In this assay, binding of specific human IgG were detected with a peroxidase labeled sheep anti-human kappa antibody (The Binding Site, Birmingham, UK).

[3] = target: T2, mouse IL-10Rα on splenocytes; assay: flow cytometry on splenocytes
[4] = target: T3, Biotin-SGSTYSIFSHFREYEIAIRKV-NH2; assay: dot blot on PVDF or nitrocellulose membrane
Description: (§1) Methods to detect antibody binding to peptides derived from the human IL-10Rα sequence: Multiple methods were employed to detect binding of anti-human IL-10Rα antibodies to peptides derived from the extracellular domain of human IL-10Rα that have been reported by Reineke, et al. (Reineke, et al., Protein Sci 7:951 (1998)) to be included in the IL-10 binding site of the receptor. The following amide synthesized peptides were tested: Ac-[…]-NH2, Ac-[…]-NH2, Ac-[…]-NH2, Ac-[…]-NH2, Ac-[…]-NH2 (SEQ ID NO. 81-85). In addition, the following biotinylated peptides were tested: Biotin-[…]-NH2, Biotin-[…]-NH2 (SEQ ID NO. 86-87). The amide peptides were synthesized by A&A Labs, LLC (San Diego, Calif.) and the biotinylated peptides were synthesized by GenScript (Piscataway, N.J.) both at >95% purity and reconstituted at 20 mg/ml in DMSO. In one assay design peptides were spotted at 5 μg/spot in PBS onto PVDF membranes or nitrocellulose membranes that had been prepared according to the manufacturer's instructions. The membranes were incubated with anti-IL-10Rα antibodies using standard Western blotting methods (e.g. Towbin, et al., Proc Natl Acad Sci 76:4350 (1979)). Native human IL-10Ra:hFc and heat denatured human IL-10Ra:hFc were also spotted at 1 μg/spot on the membranes as controls. Negative controls included an irrelevant peptide and isotype controls. […] None of the antibodies bound to the spotted denatured protein or to any of the peptides derived from the human IL-10Ra extracellular domain or the irrelevant peptide.

Ac-GNFTFTHKKV-NH2 = target: T4, Ac-GNFTFTHKKV-NH2; assay: dot blot on PVDF or nitrocellulose membrane
Description: as §1

Ac-YHSNGYRARVRA-NH2 = target: T5, Ac-YHSNGYRARVRA-NH2; assay: dot blot on PVDF or nitrocellulose membrane
Description: as §1

[5] = target: T6, Biotin-SGSTLDLYHSNGYRARVRAVDG-NH2; assay: dot blot on PVDF or nitrocellulose membrane
Description: as §1

Ac-SIFSHFREYE-NH2 = target: T7, Ac-SIFSHFREYE-NH2; assay: dot blot on PVDF or nitrocellulose membrane
Description: as §1

Ac-SVASRSNKGM-NH2 = target: T8, Ac-SVASRSNKGM-NH2; assay: dot blot on PVDF or nitrocellulose membrane
Description: as §1

Ac-TVTNTRFSVD-NH2 = target: T9, Ac-TVTNTRFSVD-NH2; assay: dot blot on PVDF or nitrocellulose membrane
Description: as §1

human IL-10Rα on cells = target: T10, human IL-10Rα on cells; assay: flow cytometry on RPMI-8226 cells; biotinylated human IL-10, streptavidin-FITC [B]
From the text: RPMI-8226 cells were stained with human IL-10 biotin followed by anti-human IL-10Rα antibodies, and binding of antibodies was detected with anti-human IgG-PE or anti-rat IgG-PE. A) Filled histograms represent the maximum binding of the antibodies in the absence of IL-10, the open histograms are in the presence of human IL-10; B) Maximum IL-10 binding (closed histogram) is inhibited by anti-IL-10 (open histogram.) The shaded histogram represents binding of a negative control protein. Binding of IL-10 was detected with streptavidin-FITC.
IL-10 Blocking Assay: To determine if the anti-human IL-10Rα antibodies were blocked by binding of IL-10 to the receptor on the cell surface, a flow cytometric protocol was used. In the flow cytometric assay, RPMI-8226 cells were washed and resuspended in staining buffer and then incubated with biotinylated human IL-10 or a negative control protein (R&D Systems) for 30 minutes on ice. The anti-IL-10Rα antibodies were then added to the cells for an additional 30 minutes. […] After another wash, the cells were fixed with 1% paraformaldehyde and analyzed on a FACS Calibur. The fold reduction in antibody binding was determined using the geometric mean fluorescence intensity in the following formula: Fold reduction=geometric mean fluorescence intensity in the absence of IL-10/geometric mean fluorescence intensity binding in presence of IL-10.

binding result [1] | BMAX [2] [OD] | binding result [3] | binding result [4] | binding result (Ac-GNFTFTHKKV-NH2) | binding result (Ac-YHSNGYRARVRA-NH2) | binding result [5] | binding result (Ac-SIFSHFREYE-NH2) | binding result (Ac-SVASRSNKGM-NH2) | binding result (Ac-TVTNTRFSVD-NH2) | binding result (human IL-10Rα on cells) | Binder
binds | 1.31 | no binding | no binding (tested: 5 µg/spot) | no binding (tested: 5 µg/spot) | no binding (tested: 5 µg/spot) | no binding (tested: 5 µg/spot) | no binding (tested: 5 µg/spot) | no binding (tested: 5 µg/spot) | no binding (tested: 5 µg/spot) |  | 136D29 (antibody, V domains shown, Hybridoma antibody, human IgG4, kappa light chain #2 (the chain identified as correct); also called human anti-human IL-10Rα monoclonal antibody 136D29; 136D9 [sic]) VH: QVQLVQSGAEVKKPGASVKVSCKVSGFTLTELSMHWVRQAPGKGLEWMGGFDPDDGETIYAQKFQGRVSMTEDTSTDTAYMELSSLRSEDTAVYYCATGGYYGPVGMDVWGQGTTVTVSS VL: DIQMTQSPSSLSASVGDRVTITCRASQGISIWLAWYQQKPEKAPKSLIYAASSLQSGVPSRFSGSGSGTDFTLTISSLQPEDFATYYCQQYNSYPLTFGGGTKVEIK
 |  |  |  |  |  |  |  |  |  | binds | recombinant human IL-10 (ligand, UniProt P22301 19-178, looked up, also called human IL-10 biotin) SPGQGTQSENSCTHFPGNLPNMLRDLRDAFSRVKTFFQMKDQLDNLLLKESLLEDFKGYLGCQALSEMIQFYLEEVMPQAENQDPDIKAHVNSLGENLKTLRLRLRRCHRFLPCENKSKAVEQVKNAFNKLQEKGIYKAMSEFDIFINYIEAYMTMKIRN
